Measured values taken from patent US20250163167A1 (SYNTHEKINE, published 2025).

T1: human IL-10 receptor (hIL-10R alpha and beta chains) on HEK-Blue IL-10 reporter cells (human, UniProt Q13651 22-578; Q08334 20-325)
T1 sequence 1: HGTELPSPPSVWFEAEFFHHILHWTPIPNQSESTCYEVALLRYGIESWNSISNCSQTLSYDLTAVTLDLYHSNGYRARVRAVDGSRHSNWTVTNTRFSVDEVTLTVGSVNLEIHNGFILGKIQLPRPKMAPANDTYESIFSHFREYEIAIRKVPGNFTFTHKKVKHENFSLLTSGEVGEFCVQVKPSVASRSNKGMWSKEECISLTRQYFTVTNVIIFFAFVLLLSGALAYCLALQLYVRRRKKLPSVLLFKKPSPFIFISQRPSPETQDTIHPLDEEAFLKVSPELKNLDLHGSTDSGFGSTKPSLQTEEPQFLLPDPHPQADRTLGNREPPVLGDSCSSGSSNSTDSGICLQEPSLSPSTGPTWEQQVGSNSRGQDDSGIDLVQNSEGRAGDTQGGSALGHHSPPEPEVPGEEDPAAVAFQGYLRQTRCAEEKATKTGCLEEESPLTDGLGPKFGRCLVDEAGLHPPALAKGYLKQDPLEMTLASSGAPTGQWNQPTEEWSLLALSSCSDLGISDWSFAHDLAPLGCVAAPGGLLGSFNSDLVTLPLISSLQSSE
T1 sequence 2: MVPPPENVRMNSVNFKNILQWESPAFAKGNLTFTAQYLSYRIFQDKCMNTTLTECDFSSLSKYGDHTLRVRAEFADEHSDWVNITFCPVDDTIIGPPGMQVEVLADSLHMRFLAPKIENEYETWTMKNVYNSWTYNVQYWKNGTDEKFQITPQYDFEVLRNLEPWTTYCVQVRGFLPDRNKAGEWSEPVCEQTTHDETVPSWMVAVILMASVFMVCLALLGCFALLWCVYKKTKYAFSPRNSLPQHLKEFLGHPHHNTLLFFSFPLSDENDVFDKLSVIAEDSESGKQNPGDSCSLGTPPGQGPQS

B1: IL10R binding molecule of SEQ ID NO: 285 (bispecific antibody)
chain: QVQLQESGGGSVQAGGSLRLSCTVSGYTYSSNCMGWFRQAPGKEREGVATIYTGGGNTYYADSVKGRFTISQDNAKNTVYLQMNNLKPEDTAMYYCAAEPLSRVYGGSCPTPTFDYWGQGTQVTVSSGGGSQVQLQESGGGSVQAGGSLRLSCAASGYTYSSYCMGWFRQAPGKEREGVAHIDSDGSTSYADSVKGRFTISKDNAKNTLYLQMNSLKPEDTAMYYCAADPIPGPGYCDGGPNKYWGQGTQVTVSSASHHHHHH
B2: IL10R binding molecule of SEQ ID NO: 290 (bispecific antibody)
chain: QVQLQESGGGSVQAGGSLRLSCTVSGYTYSSNCMGWFRQAPGKEREGVATIYTGGGNTYYADSVKGRFTISQDNAKNTVYLQMNNLKPEDTAMYYCAAEPLSRVYGGSCPTPTFDYWGQGTQVTVSSGGGSQVQLQESGGGSVQTGGSLRLSCAASGYTYLRGCMGWFRQAPGKEREGVAVMDVVGDRRSYIDSVKGRFTISRDNAANSVYLQMDNLKPEDTAMYYCTAGPNCVGWRSGLDYWGQGTQVTVSSASHHHHHH
B3: IL10R binding molecule of SEQ ID NO: 258 (bispecific antibody)
chain: QVQLQESGGGSVQAGGSLRLSCAASRYLYSIDYMAWFRQSPGKEREPVAVIYTASGATFYPDSVKGRFTISQDNAKMTVYLQMNSLKSEDTAMYYCAAVRKTDSYLFDAQSFTYWGQGTQVTVSSGGGSQVQLQESGGGSVQAGGSLRLSCAASRYTYNSYCMGWFRQAPGKEREGVATIDSDGMTRYADSVKGRFTISKDNAKNTLYLQMNSLKPEDTAMYYCAADADCTIAAMTTNPLGQGTQVTVSSASHHHHHH
B4: IL10R binding molecule of SEQ ID NO: 283 (bispecific antibody)
chain: QVQLQESGGGSVQAGGSLRLSCAVSGYAYSTYCMGWFRQAPGKEREGVAAIDSGGSTSYADSVKGRFTISKDNAKNTLYLRMNSLKPEDTAMYYCAAVPPPPDGGSCLFLGPEIKVSKADFRYWGQGTQVTVSSGGGSQVQLQESGGGSVQTGGSLRLSCAASGYTYLRGCMGWFRQAPGKEREGVAVMDVVGDRRSYIDSVKGRFTISRDNAANSVYLQMDNLKPEDTAMYYCTAGPNCVGWRSGLDYWGQGTQVTVSSASHHHHHH
B5: IL10R binding molecule of SEQ ID NO: 294 (bispecific antibody)
chain: QVQLQESGGGSVQAGGSLRLSCGASGYTYSSYCMGWFRQVPGKEREGVAVIDSDGSTSYADSVKGRFTISKDNGKNTLYLQMNSLKPEDTAMYYCAADLGHYRPPCGVLYLGMDYWGKGTQVTVSSGGGSQVQLQESGGGSVQAGGSLRLSCTVSRYTASVNYMGWFRQAPGKEREGVATIFTGAGTTYYANSVKGRFTISRDNAKNTAYLQMNSLKPEDTAIYYCAVDFRGGLLYRPAYEYTYRGQGTQVTVSSASHHHHHH
B6: IL10R binding molecule of SEQ ID NO: 295 (bispecific antibody)
chain: QVQLQESGGGSVQAGGSLRLSCGASGYTYSSYCMGWFRQVPGKEREGVAVIDSDGSTSYADSVKGRFTISKDNGKNTLYLQMNSLKPEDTAMYYCAADLGHYRPPCGVLYLGMDYWGKGTQVTVSSGGGSQVQLQESGGGSVEAGGSLRLSCAASGYTHSSYCMGWFRQAPGKEREGVAAIDVDGSTTYADSVKGRFTISKDNAKNTLYLQMNSLKPEDTGMYYCAAEFADCSSNYFLPPGAVRYWGQGTQVTVSSASHHHHHH
B7: IL10R binding molecule of SEQ ID NO: 291 (bispecific antibody)
chain: QVQLQESGGGSVQAGGSLRLSCGASGYTYSSYCMGWFRQVPGKEREGVAVIDSDGSTSYADSVKGRFTISKDNGKNTLYLQMNSLKPEDTAMYYCAADLGHYRPPCGVLYLGMDYWGKGTQVTVSSGGGSQVQLQESGGGSVQAGGSLRLSCAASGYTYSSGCMGWFRQAPGKEREAVAAINSDGSTSYADSVKGRFTISKDNAKNTLYLQMNSLKPEDTAMYYCAAEPYCSGGYPRWSVAEFGYWGQGTQVTVSSASHHHHHH
B8: IL10R binding molecule of SEQ ID NO: 289 (bispecific antibody)
chain: QVQLQESGGGSVQAGGSLRLSCTVSGYTYSSNCMGWFRQAPGKEREGVATIYTGGGNTYYADSVKGRFTISQDNAKNTVYLQMNNLKPEDTAMYYCAAEPLSRVYGGSCPTPTFDYWGQGTQVTVSSGGGSQVQLQESGGGSVQAGGSLRLSCAASGYSYSSYCMGWFRQAPGKEREGVATIDSDGMTRYADSVKGRFTISKDNAKNTLYLQMNSLKPEDTAMYYCAAPLYDCDSGAVGRNPPYWGQGTQVTVSSASHHHHHH
B9: IL10R binding molecule of SEQ ID NO: 293 (bispecific antibody)
chain: QVQLQESGGGSVQAGGSLRLSCGASGYTYSSYCMGWFRQVPGKEREGVAVIDSDGSTSYADSVKGRFTISKDNGKNTLYLQMNSLKPEDTAMYYCAADLGHYRPPCGVLYLGMDYWGKGTQVTVSSGGGSQVQLQESGGGSVQAGGSLRLSCAASRYTYNSYCMGWFRQAPGKEREGVATIDSDGMTRYADSVKGRFTISKDNAKNTLYLQMNSLKPEDTAMYYCAADADCTIAAMTTNPLGQGTQVTVSSASHHHHHH
B10: IL10R binding molecule of SEQ ID NO: 297 (bispecific antibody)
chain: QVQLQESGGGSVQAGGSLRLSCGASGYTYSSYCMGWFRQVPGKEREGVAVIDSDGSTSYADSVKGRFTISKDNGKNTLYLQMNSLKPEDTAMYYCAADLGHYRPPCGVLYLGMDYWGKGTQVTVSSGGGSQVQLQESGGGSVQTGGSLRLSCAASGYTYLRGCMGWFRQAPGKEREGVAVMDVVGDRRSYIDSVKGRFTISRDNAANSVYLQMDNLKPEDTAMYYCTAGPNCVGWRSGLDYWGQGTQVTVSSASHHHHHH
B11: IL10R binding molecule of SEQ ID NO: 288 (bispecific antibody)
chain: QVQLQESGGGSVQAGGSLRLSCTVSGYTYSSNCMGWFRQAPGKEREGVATIYTGGGNTYYADSVKGRFTISQDNAKNTVYLQMNNLKPEDTAMYYCAAEPLSRVYGGSCPTPTFDYWGQGTQVTVSSGGGSQVQLQESGGGSVEAGGSLRLSCAASGYTHSSYCMGWFRQAPGKEREGVAAIDVDGSTTYADSVKGRFTISKDNAKNTLYLQMNSLKPEDTGMYYCAAEFADCSSNYFLPPGAVRYWGQGTQVTVSSASHHHHHH
B12: IL10R binding molecule of SEQ ID NO: 286 (bispecific antibody)
chain: QVQLQESGGGSVQAGGSLRLSCTVSGYTYSSNCMGWFRQAPGKEREGVATIYTGGGNTYYADSVKGRFTISQDNAKNTVYLQMNNLKPEDTAMYYCAAEPLSRVYGGSCPTPTFDYWGQGTQVTVSSGGGSQVQLQESGGGSVQAGGSLRLSCAASRYTYNSYCMGWFRQAPGKEREGVATIDSDGMTRYADSVKGRFTISKDNAKNTLYLQMNSLKPEDTAMYYCAADADCTIAAMTTNPLGQGTQVTVSSASHHHHHH
B13: IL10R binding molecule of SEQ ID NO: 292 (bispecific antibody)
chain: QVQLQESGGGSVQAGGSLRLSCGASGYTYSSYCMGWFRQVPGKEREGVAVIDSDGSTSYADSVKGRFTISKDNGKNTLYLQMNSLKPEDTAMYYCAADLGHYRPPCGVLYLGMDYWGKGTQVTVSSGGGSQVQLQESGGGSVQAGGSLRLSCAASGYTYSSYCMGWFRQAPGKEREGVAHIDSDGSTSYADSVKGRFTISKDNAKNTLYLQMNSLKPEDTAMYYCAADPIPGPGYCDGGPNKYWGQGTQVTVSSASHHHHHH
B14: IL10R binding molecule of SEQ ID NO: 284 (bispecific antibody)
chain: QVQLQESGGGSVQAGGSLRLSCTVSGYTYSSNCMGWFRQAPGKEREGVATIYTGGGNTYYADSVKGRFTISQDNAKNTVYLQMNNLKPEDTAMYYCAAEPLSRVYGGSCPTPTFDYWGQGTQVTVSSGGGSQVQLQESGGGSVQAGGSLRLSCAASGYTYSSGCMGWFRQAPGKEREAVAAINSDGSTSYADSVKGRFTISKDNAKNTLYLQMNSLKPEDTAMYYCAAEPYCSGGYPRWSVAEFGYWGQGTQVTVSSASHHHHHH
B15: IL10R binding molecule of SEQ ID NO: 296 (bispecific antibody)
chain: QVQLQESGGGSVQAGGSLRLSCGASGYTYSSYCMGWFRQVPGKEREGVAVIDSDGSTSYADSVKGRFTISKDNGKNTLYLQMNSLKPEDTAMYYCAADLGHYRPPCGVLYLGMDYWGKGTQVTVSSGGGSQVQLQESGGGSVQAGGSLRLSCAASGYSYSSYCMGWFRQAPGKEREGVATIDSDGMTRYADSVKGRFTISKDNAKNTLYLQMNSLKPEDTAMYYCAAPLYDCDSGAVGRNPPYWGQGTQVTVSSASHHHHHH
B16: IL10R binding molecule of SEQ ID NO: 287 (bispecific antibody)
chain: QVQLQESGGGSVQAGGSLRLSCTVSGYTYSSNCMGWFRQAPGKEREGVATIYTGGGNTYYADSVKGRFTISQDNAKNTVYLQMNNLKPEDTAMYYCAAEPLSRVYGGSCPTPTFDYWGQGTQVTVSSGGGSQVQLQESGGGSVQAGGSLRLSCTVSRYTASVNYMGWFRQAPGKEREGVATIFTGAGTTYYANSVKGRFTISRDNAKNTAYLQMNSLKPEDTAIYYCAVDFRGGLLYRPAYEYTYRGQGTQVTVSSASHHHHHH

Molecular target: T1, human IL-10 receptor (hIL-10R alpha and …)
Assay: cell-based or functional assay

| Abs 630 (25 nM) | Abs 630 (100 nM) | Binder |
| --- | --- | --- |
| 0.48 Abs 630 | 0.39 Abs 630 | B1 |
| 0.49 Abs 630 | 0.37 Abs 630 | B2 |
| 0.49 Abs 630 | 0.38 Abs 630 | B3 |
| 0.48 Abs 630 | 0.39 Abs 630 | B4 |
| 0.49 Abs 630 | 0.39 Abs 630 | B5 |
| 0.72 Abs 630 | 0.46 Abs 630 | B6 |
| 1.73 Abs 630 | 0.59 Abs 630 | B7 |
| 0.48 Abs 630 | 0.39 Abs 630 | B8 |
| 0.54 Abs 630 | 0.43 Abs 630 | B9 |
| 0.46 Abs 630 | 0.36 Abs 630 | B10 |
| 0.5 Abs 630 | 0.44 Abs 630 | B11 |
| 0.46 Abs 630 | 0.39 Abs 630 | B12 |
| 0.78 Abs 630 | 0.47 Abs 630 | B13 |
| 0.45 Abs 630 | 0.34 Abs 630 | B14 |
| 0.54 Abs 630 | 0.38 Abs 630 | B15 |
| 0.9 Abs 630 | 0.51 Abs 630 | B16 |
